What was measured:
[1] = tested on: inner retina (INL, IPL, retinal ganglion cell layer); assay: Transient retinal ischemia-reperfusion injury with intravitreous injection; morphometric analysis of inner retina; assay type: in vivo, C57/B16 mice; design: thickness of the INL compared with non-ischemia control / thickness of the IPL compared with non-ischemia control / surviving cells in the RGC layer compared with non-ischemia control: concentration or dose not given beside the values; conditions: for surviving cells in the RGC layer compared with non-ischemia control / thickness of the INL compared with non-ischemia control / thickness of the IPL compared with non-ischemia control: single intravitreous injection immediately after ischemia
Experimental: Induction of transient retinal ischemia in C57/B16 mice: Animal experiments were conducted in accordance with ARVO guidelines and were approved by the Animal Care and Use Committee of Yale University School of Medicine. Transient retinal ischemia was induced in one eye and the contralateral eye served as control. During the operation and recovery period, animals were placed on water heating pads at 37° C. […] Briefly, animals were anesthetized by i.p. injection of a mixture of 100 mg/kg Ketamine+10 mg/kg Xylazine. […] The anterior chambers were cannulated in fully anesthetized animals with a 30-gauge infusion needle connected by PE10 polyethylene tubing and IV set to a physiological saline reservoir. The intraocular pressure (IOP) of the cannulated eye was raised to 120 mmHg for 60 minutes by elevating the saline reservoir. Retinal ischemia was confirmed by direct microscopic observation of whitening of the fundus. The reperfusion was confirmed visually when needle was withdrawn from the anterior chamber. One group of animals was treated with Vetropolycin® ophthalmic ointment (Pharmaderm, Melville, N. Y.) on the ischemic eyes and allowed to recover for 24 hours, 48 hours, 7 days and 14 days before sacrifice. Other groups were kept for intravitreous injections of the PEDF and PEDF peptides.
Intravitreous injection of PEDF, PEDF peptides and encapsulated PEDF peptide: One group of animals remained uninjected to monitor ischemic damage. All other groups received intravitreal injections, which were performed under an ophthalmic microscope. […] Intravitreous injection was performed with 30-gauge beveled needle attached to PE10 polyethylene tubing and a 10 μl syringe (Hamilton, Reno, Nev.). The injections were performed through the sclera, approximately 1 mm behind the limbus. The needle remained in the vitreous cavity for 30 seconds after injection then gently withdrawn. Control groups were injected with 1 μl PBS, 1 μl control peptide (1 μg/μl), or blank nanospheres (0.1 mg/μl). […] Vetropolycin® ointment was applied to the injected eyes and animals were allowed to recover for 48 hours or 7 days before sacrifice.
Preparation of retinal tissue: at designated time points, mice were sacrificed by carbon dioxide inhalation followed by, in some cases, cervical dislocation. The eyes were enucleated, fixed in 4% paraformaldehyde for 24 hours, washed with PBS and embedded in paraffin. Five (5) μm thick sections that included the optic nerve were collected. Sections were processed for TUNEL, immunocytochemistry, or histochemical staining with hematoxylin and eosin (Surgipath, Ltd, Richmond, Ill.) using standard methods.
Morphologic and Morphometric Analysis: For each eye, three sections, which included the optic disk and were spaced at least 20 μm apart, were used for morphological analysis. The fields analyzed were 4×250 μm zones sampled from all retinal eccentricities. These zones were 500 μm away from the edge of optic disk or the ora serrata. The average measurement of these 4 zones was used for statistical analysis. The mean thickness of inner nuclear layer (INL) and inner plexiform layer (IPL) was measured using Axiovision3.1 software (Carl Zeiss MicroImaging, Inc., Thornwood, N.Y.). Total surviving cells in the retinal ganglion cell layer at the same locations were counted using light microscopy.
Statistical analysis: Twelve fields per retina were analyzed for each treatment, and a total of 72 fields were used. For statistical analysis, one-way analysis of variance (ANOVA) and Fisher tests were performed; p<0.05 was taken as significant. Data are presented as means and standard deviations.

[2] = tested on: GFAP; assay: GFAP immunocytochemical labeling of Müller glial cells after transient ischemia; assay type: in vivo, C57/B16 mice
Experimental: Induction of transient retinal ischemia in C57/B16 mice: Animal experiments were conducted in accordance with ARVO guidelines and were approved by the Animal Care and Use Committee of Yale University School of Medicine. Transient retinal ischemia was induced in one eye and the contralateral eye served as control. During the operation and recovery period, animals were placed on water heating pads at 37° C. Eighty-one 10-14 weeks male C57/B16 mice (Charles River Laboratories, Wilmington, Mass., weighing […]) were used in this experiment. To induce retinal ischemia, a previously established technique with some modifications was used (Hughes, 1991, Exp Eye Res. 53(5):573-582; Buchi et al., 1991, Opthalmologica 203 (3): 138-147). Briefly, animals were anesthetized by i.p. injection of a mixture of 100 mg/kg Ketamine+10 mg/kg Xylazine. The corneas were topically anesthetized with 0.5% proparacaine hydrochloride (Bausch & Lomb Pharmaceuticals, Inc., Tampa, Fla.), and the pupils dilated with 2.5% phenylephrine (Bausch & Lomb Pharmaceuticals, Inc., Tampa, Fla.). The anterior chambers were cannulated in fully anesthetized animals with a 30-gauge infusion needle connected by PE10 polyethylene tubing and IV set to a physiological saline reservoir. The intraocular pressure (IOP) of the cannulated eye was raised to 120 mmHg for 60 minutes by elevating the saline reservoir. Retinal ischemia was confirmed by direct microscopic observation of whitening of the fundus. The reperfusion was confirmed visually when needle was withdrawn from the anterior chamber. One group of animals was treated with Vetropolycin® ophthalmic ointment (Pharmaderm, Melville, N. Y.) on the ischemic eyes and allowed to recover for 24 hours, 48 hours, 7 days and 14 days before sacrifice. Other groups were kept for intravitreous injections of the PEDF and PEDF peptides.
Intravitreous injection of PEDF, PEDF peptides and encapsulated PEDF peptide: One group of animals remained uninjected to monitor ischemic damage. All other groups received intravitreal injections, which were performed under an ophthalmic microscope. Experimental groups received 1 μl native PEDF protein (1 μg/μl), PEDF82-121 peptide (1 μg/μl), PEDF76-95 peptide (1 μg/μl), PEDF91-110 peptide (1 μg/μl), PEDF106-125 peptide (1 μg/μl) or PLGA PEDF82-121 nanospheres (0.1 mg/μl, less than 1.6 μg PEDF82-121 peptide when fully released) immediately after the end of the transient ischemia. Intravitreous injection was performed with 30-gauge beveled needle attached to PE10 polyethylene tubing and a 10 μl syringe (Hamilton, Reno, Nev.). The injections were performed through the sclera, approximately 1 mm behind the limbus. The needle remained in the vitreous cavity for 30 seconds after injection then gently withdrawn. […]

[3] = molecular target: VEGFR1 (Homo sapiens, UniProt P17948); assay: VEGFR1 binding; conditions: compared to PEDF purified from human plasma or recombinant non-modified human PEDF
VEGFR1, sequence (P17948 27-1338, species assumed): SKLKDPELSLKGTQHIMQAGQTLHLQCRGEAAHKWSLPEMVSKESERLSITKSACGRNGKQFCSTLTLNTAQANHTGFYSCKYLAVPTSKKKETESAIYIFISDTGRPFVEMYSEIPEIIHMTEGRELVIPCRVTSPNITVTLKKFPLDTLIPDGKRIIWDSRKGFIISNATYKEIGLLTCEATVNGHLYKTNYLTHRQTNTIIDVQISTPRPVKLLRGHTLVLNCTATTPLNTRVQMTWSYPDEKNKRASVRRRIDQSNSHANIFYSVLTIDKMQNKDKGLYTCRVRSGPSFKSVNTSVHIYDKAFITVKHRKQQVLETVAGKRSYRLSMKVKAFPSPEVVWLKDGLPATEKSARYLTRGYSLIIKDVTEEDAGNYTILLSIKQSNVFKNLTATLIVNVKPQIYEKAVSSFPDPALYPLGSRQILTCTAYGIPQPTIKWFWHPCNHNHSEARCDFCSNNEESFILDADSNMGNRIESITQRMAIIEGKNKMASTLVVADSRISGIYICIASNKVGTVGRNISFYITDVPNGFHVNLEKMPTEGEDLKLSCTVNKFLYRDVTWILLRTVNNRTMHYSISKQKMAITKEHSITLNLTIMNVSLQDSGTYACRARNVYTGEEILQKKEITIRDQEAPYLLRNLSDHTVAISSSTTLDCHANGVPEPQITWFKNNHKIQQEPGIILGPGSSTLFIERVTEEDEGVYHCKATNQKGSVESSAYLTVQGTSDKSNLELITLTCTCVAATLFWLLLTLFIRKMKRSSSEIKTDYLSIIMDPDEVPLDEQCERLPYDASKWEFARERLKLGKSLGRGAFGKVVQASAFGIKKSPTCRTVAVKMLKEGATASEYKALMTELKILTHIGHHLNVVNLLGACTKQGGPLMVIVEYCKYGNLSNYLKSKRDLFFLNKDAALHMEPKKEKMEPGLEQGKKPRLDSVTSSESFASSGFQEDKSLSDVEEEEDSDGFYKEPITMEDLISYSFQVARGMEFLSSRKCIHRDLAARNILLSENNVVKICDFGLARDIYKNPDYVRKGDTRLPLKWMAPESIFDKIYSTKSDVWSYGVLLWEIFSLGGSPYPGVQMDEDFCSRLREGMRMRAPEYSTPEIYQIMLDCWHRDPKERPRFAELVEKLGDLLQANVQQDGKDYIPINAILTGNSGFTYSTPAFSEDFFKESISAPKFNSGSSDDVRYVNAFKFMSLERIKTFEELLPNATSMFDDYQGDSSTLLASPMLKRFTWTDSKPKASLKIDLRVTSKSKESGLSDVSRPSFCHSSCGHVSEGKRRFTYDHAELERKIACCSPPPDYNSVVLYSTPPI

[4] = tested on: VEGF; assay: Block of VEGF mitogenic signaling; conditions: compared to recombinant, non-modified human PEDF
[5] = molecular target: VEGFR2 (Homo sapiens, UniProt P35968); assay: Block of VEGFR2 phosphorylation; conditions: compared to recombinant, non-modified human PEDF
VEGFR2, sequence (P35968 20-1356, species assumed): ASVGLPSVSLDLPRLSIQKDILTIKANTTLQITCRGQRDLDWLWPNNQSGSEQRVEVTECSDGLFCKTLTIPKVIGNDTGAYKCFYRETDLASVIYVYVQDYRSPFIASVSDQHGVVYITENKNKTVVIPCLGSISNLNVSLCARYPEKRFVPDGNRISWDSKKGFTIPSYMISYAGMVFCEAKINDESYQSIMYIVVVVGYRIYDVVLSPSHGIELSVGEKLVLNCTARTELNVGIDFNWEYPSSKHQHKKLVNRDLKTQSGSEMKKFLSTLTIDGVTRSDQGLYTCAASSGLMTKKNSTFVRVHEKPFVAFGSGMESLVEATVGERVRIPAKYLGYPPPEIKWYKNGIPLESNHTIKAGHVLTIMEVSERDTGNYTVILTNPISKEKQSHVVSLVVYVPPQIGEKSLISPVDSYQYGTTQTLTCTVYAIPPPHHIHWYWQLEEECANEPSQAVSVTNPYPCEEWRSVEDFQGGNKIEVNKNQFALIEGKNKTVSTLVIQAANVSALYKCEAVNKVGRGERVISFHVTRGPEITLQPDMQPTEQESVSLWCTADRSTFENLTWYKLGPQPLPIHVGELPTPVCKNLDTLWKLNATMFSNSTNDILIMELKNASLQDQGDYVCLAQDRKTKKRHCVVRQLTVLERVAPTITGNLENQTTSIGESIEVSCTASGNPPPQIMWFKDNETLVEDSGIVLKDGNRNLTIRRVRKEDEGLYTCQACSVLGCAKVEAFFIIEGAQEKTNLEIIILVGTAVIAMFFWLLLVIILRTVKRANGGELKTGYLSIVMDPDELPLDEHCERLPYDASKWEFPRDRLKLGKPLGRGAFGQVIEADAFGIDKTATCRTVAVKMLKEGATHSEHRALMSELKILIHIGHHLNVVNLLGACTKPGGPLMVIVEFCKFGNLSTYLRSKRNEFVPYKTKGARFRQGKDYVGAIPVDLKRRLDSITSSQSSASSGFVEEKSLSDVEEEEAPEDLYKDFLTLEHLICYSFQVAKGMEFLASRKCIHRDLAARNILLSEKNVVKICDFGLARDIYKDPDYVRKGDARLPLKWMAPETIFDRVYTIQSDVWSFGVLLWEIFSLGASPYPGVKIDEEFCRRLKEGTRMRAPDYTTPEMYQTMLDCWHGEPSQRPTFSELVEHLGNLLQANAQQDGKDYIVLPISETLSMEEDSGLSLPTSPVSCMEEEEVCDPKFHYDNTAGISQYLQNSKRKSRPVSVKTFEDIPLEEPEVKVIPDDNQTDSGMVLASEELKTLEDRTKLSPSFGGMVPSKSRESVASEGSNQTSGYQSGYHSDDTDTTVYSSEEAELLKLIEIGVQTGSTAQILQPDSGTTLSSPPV

[6] = molecular target: VEGF receptor KDR (VEGFR2) (Homo sapiens, UniProt P35968); assay: ELISA binding to VEGF receptor KDR
VEGF receptor KDR (VEGFR2), sequence (P35968 20-1356, species assumed): as above

[7] = 7 days post ischemia, free single bolus or nanospheres
[8] = 48 hours after ischemia reperfusion

Molecule: PEDF91-110: residues 91 to 110 of human PEDF, ALSLGAEQRTESIIHRALYY (SEQ ID NO: 7) ((1)..(20) Residues 91-110 of human PEDF; listed as Homo sapiens)
- protection of the retinal ganglion cell layer (in words) [1, 7]: significantly protecting
- RGCs protected from dying after ischemic injury ([1]; after ischemic injury): about 85%

Molecule: PEDF76-95: residues 76 to 95 of human PEDF, TNVLLSPLSVATALSALSLG (SEQ ID NO: 5) ((1)..(20) Residues 76-95 of human PEDF; listed as Homo sapiens)
- protection of the IPL (in words) ([1]; seven days after ischemic injury): protected
- protection of the INL (in words) ([1]; seven days after ischemic injury, versus control peptide PEDF136-155): protected the INL significantly

Molecule: PEDF106-125: residues 106 to 125 of human PEDF, RALYYDLISSPDIHGTYKEL (SEQ ID NO: 9) ((1)..(20) Residues 106-125 of human PEDF; listed as Homo sapiens)
- protection of the retinal ganglion cell layer (in words) [1, 7]: significantly protecting

B1: PEDF protein: full length pigment epithelium-derived factor, a 50 kD protein of the serpin family (protein, listed as Homo sapiens)
chain: MQALVLLLCIGALLGHSSCQNPASPPEEGSPDPDSTGALVEEEDPFFKVPVNKLAAAVSNFGYDLYRVRSSMSPTTNVLLSPLSVATALSALSLGADERTESIIHRALYYDLISSPDIHGTYKELLDTVTAPQKNLKSASRIVFEKKLRIKSSFVAPLEKSYGTRPRVLTGNPRLDLQEINNWVQAQMKGKLARSTKEIPDEISILLLGVAHFKGQWVTKFDSRKTSLEDFYLDEERTVRVPMMSDPKAVLRYGLDSDLSCKIAQLPLTGSMSIIFFLPLKVTQNLTLIEESLTSEFIHDIDRELKTVQAVLTVPKLKLSYEGEVTKSLQEMKLQSLFDSPDFSKITGKPIKLTQVEHRAGFEWNEDGAGTTPSPGLQPAHLTFPLDYHLNQPFIFVLRDTDTGALLFIGKILDPRGP
- surviving cells in the RGC layer compared with non-ischemia control [1, 8]: 85.4%
- thickness of the INL compared with non-ischemia control [1, 8]: 100%
- thickness of the IPL compared with non-ischemia control [1, 8]: 86.6%
- protection of the retinal ganglion cell layer (in words) ([1]; 48 hours post ischemia, versus PBS or PEDF136-155): significantly reduced cell death
- surviving cells in the RGC layer compared with non-ischemia control ([1]; 7 days after injury): 87.4%
- thickness of the INL compared with non-ischemia control ([1]; 7 days after injury): 82.5%
- thickness of the IPL compared with non-ischemia control ([1]; 7 days after injury): 78.2%
- protection of the retinal ganglion cell layer (in words) [1, 7]: significantly reduced cell death
- IPL thickness after ischemic injury (in words) ([1]; compared to PBS injected controls, time not stated): prevented the thinning of the IPL
- GFAP labeling compared to PBS injections ([2]; 48 hours after transient ischemia): less GFAP labeling
- GFAP staining ([2]; 7 days after injury): very similar staining

B2: coPEDF: bacterially expressed codon-optimized fusion protein: thioredoxin, His6 tag, thrombin site and S-Tag fused N-terminally to human PEDF (protein)
chain: QNPASPPEEGSPDPDSTGALVEEEDPFFKVPVNKLAAAVSNFGYDLYRVRSSMSPTTNVLLSPLSVATALSALSLGADERTESIIHRALYYDLISSPDIHGTYKELLDTVTAPQKNLKSASRIVFEKKLRIKSSFVAPLEKSYGTRPRVLTGNPRLDLQEINNWVQAQMKGKLARSTKEIPDEISILLLGVAHFKGQWVTKFDSRKTSLEDFYLDEERTVRVPMMSDPKAVLRYGLDSDLSCKIAQLPLTGSMSIIFFLPLKVTQNLTLIEESLTSEFIHDIDRELKTVQAVLTVPKLKLSYEGEVTKSLQEMKLQSLFDSPDFSKITGKPIKLTQVEHRAGFEWNEDGAGTTPSPGLQPAHLTFPLDYHLNQPFIFVLRDTDTGALLFIGKILDPRGP
modifications: left off: large carriers; small tags and cut ends
notes: bacterially expressed codon-optimized fusion protein: thioredoxin, His6 tag, thrombin site and S-Tag fused N-terminally to human PEDF
- VEGFR1 binding [3]: increased VEGFR1 binding
- block of VEGF mitogenic signaling [4]: greater effect
- block of VEGFR2 phosphorylation [5]: greater effect
- binding to VEGF receptor KDR (VEGFR2) [6]: improves binding
